In patent publication US20220362368A1:
Read-outs that look alike come from different tables or passages of the source.

Assays:
[1] = target: SpAKKAA (Staphylococcus aureus); experiment: ELISA, OD 450 against log10(1/dilution of 3F6), initial 0.05 mg/mL
[2] = target: SpAQ9,10K/G29F/D36,37A (Staphylococcus aureus) (UniProt P02976); experiment: as above
[3] = target: human IgG; experiment: SPR, test article on chip, human IgG in flow
[4] = target: F(ab)2 fragment of human IgG; experiment: SPR, test article on chip, F(ab)2 fragment of human IgG in flow
[5] = target: Fcγ fragment of human IgG (human); experiment: BLI, test article on Ni-NTA sensor, Fc fragment of human IgG in solution
[6] = target: human IgG; experiment: method and unit not given (binding affinity of the variants to human IgG)
[7] = target: human IgE; experiment: method and unit not told (binding affinity of the variants to human IgE)
[8] = target: SpAQ9,10K/S33E (Staphylococcus aureus)
[9] = target: SpAQ9,10K/S33T (Staphylococcus aureus)
[10] = target: SpAKKAA (Staphylococcus aureus); experiment: ELISA, plates coated with SpAKKAA, serial dilution of hMAb 3F6
[11] = target: SpAKKAA (Staphylococcus aureus); experiment: ELISA, association constant calculated with GraphPad Prism; head of the table: KA (x 10^10) M^-1
[12] = target: SpAQ9,10K/S33E (Staphylococcus aureus); experiment: as above
[13] = target: SpAQ9,10K/S33T (Staphylococcus aureus); experiment: as above
[14] = target: SpAQ9,10K/S33E (Staphylococcus aureus); remark: listed apart in the source
[15] = target: SpAQ9,10K/S33T (Staphylococcus aureus); remark: listed apart in the source
[16] = target: SpAKKAA (Staphylococcus aureus); experiment: ELISA, plate coated with antigen, serial dilutions of rMAb 3F6
[17] = target: SpAQ9,10K/S33E (Staphylococcus aureus); experiment: as above
[18] = target: SpAQ9,10K/S33T (Staphylococcus aureus); experiment: as above
[19] = target: SpAKKAA (Staphylococcus aureus); experiment: ELISA, plates coated with SpAKKAA, serial dilution of rMAb 3F6

Question: 3F6 (antibody) was tested. Which EC50 (read off the curve) [1] did it give?
Answer: 6 ng/mL

Question: What about the EC50 (read off the curve) [2] of the same substance?
Answer: 6 ng/mL

Question: “SpAKKAA (from UniProt A0A0H3K686 37-327)” was tested. Which Ka [3] did it give?
Answer: 502000 M⁻¹

Question: What about the Ka [4] of the same substance?
Answer: 82700 M⁻¹

Question: What about the Ka [5] of the same substance?
Answer: 32.9 M⁻¹

Question: What about the human IgG affinity [6] of the same substance?
Answer: 6.6e-05

Question: And the human IgE affinity [7]?
Answer: 6.57e-08

Question: Which Ka [3] does the source give for “SpAQ9,10K/G29A (from UniProt A0A0H3K686 37-327)” here?
Answer: 1.13e+06 M⁻¹

Question: With “SpAQ9,10K/G29A/D36,37A (from UniProt A0A0H3K686 37-327)” as the substance, how does the Ka [3] read?
Answer: 178000 M⁻¹

Question: What about the human IgG affinity [6] of the same substance?
Answer: 0.000143

Question: What about the human IgE affinity [7] of the same substance?
Answer: 3.43e-06

Question: Which Ka [3] does the source give for “SpAQ9,10K/G29C (from UniProt A0A0H3K686 37-327)” here?
Answer: 174000 M⁻¹

Question: With “SpAQ9,10K/G29D (from UniProt A0A0H3K686 37-327)” as the substance, how does the Ka [3] read?
Answer: 548000 M⁻¹

Question: With “SpAQ9,10K/G29E (from UniProt A0A0H3K686 37-327)” as the substance, how does the Ka [3] read?
Answer: 318000 M⁻¹

Question: How did the Ka [3] turn out when “SpAQ9,10K/G29F (from UniProt A0A0H3K686 37-327)” was run?
Answer: 346000 M⁻¹

Question: For “SpAQ9,10K/G29F/D36,37A (from UniProt P02976 37-327)”, which Ka [3] is on record?
Answer: 372000 M⁻¹

Question: And the human IgG affinity [6]?
Answer: 0.0124

Question: What about the human IgE affinity [7] of the same substance?
Answer: 2.02e-05

Question: Which Ka [3] does the source give for “SpAQ9,10K/G29H (from UniProt A0A0H3K686 37-327)” here?
Answer: 144000 M⁻¹

Question: For “SpAQ9,10K/G29I (from UniProt A0A0H3K686 37-327)”, which Ka [3] is on record?
Answer: 1.01e+06 M⁻¹

Question: How did the Ka [3] turn out when “SpAQ9,10K/G29K (from UniProt A0A0H3K686 37-327)” was run?
Answer: 974000 M⁻¹

Question: With “SpAQ9,10K/G29L (from UniProt A0A0H3K686 37-327)” as the substance, how does the Ka [3] read?
Answer: 315000 M⁻¹

Question: How did the Ka [3] turn out when “SpAQ9,10K/G29M (from UniProt A0A0H3K686 37-327)” was run?
Answer: 389000 M⁻¹

Question: How did the Ka [3] turn out when “SpAQ9,10K/G29N (from UniProt A0A0H3K686 37-327)” was run?
Answer: 623000 M⁻¹

Question: For “SpAQ9,10K/G29P (from UniProt A0A0H3K686 37-327)”, which Ka [3] is on record?
Answer: 340000 M⁻¹

Question: Which Ka [3] does the source give for “SpAQ9,10K/G29Q (from UniProt A0A0H3K686 37-327)” here?
Answer: 206000 M⁻¹

Question: Which Ka [3] does the source give for “SpAQ9,10K/G29R (from UniProt A0A0H3K686 37-327)” here?
Answer: 606000 M⁻¹

Question: How did the Ka [3] turn out when “SpAQ9,10K/G29R/D36,37A (from UniProt A0A0H3K686 37-327)” was run?
Answer: 681000 M⁻¹

Question: Which Ka [3] does the source give for “SpAQ9,10K/G29S (from UniProt A0A0H3K686 37-327)” here?
Answer: 940000 M⁻¹

Question: “SpAQ9,10K/G29T (from UniProt A0A0H3K686 37-327)” was tested. Which Ka [3] did it give?
Answer: 198000 M⁻¹

Question: How did the Ka [3] turn out when “SpAQ9,10K/G29V (from UniProt A0A0H3K686 37-327)” was run?
Answer: 435000 M⁻¹

Question: How did the Ka [3] turn out when “SpAQ9,10K/G29W (from UniProt A0A0H3K686 37-327)” was run?
Answer: 451000 M⁻¹

Question: For “SpAQ9,10K/G29Y (from UniProt A0A0H3K686 37-327)”, which Ka [3] is on record?
Answer: 837000 M⁻¹

Question: With “SpAQ9,10K/S33A/D36,37A (from UniProt A0A0H3K686 37-327)” as the substance, how does the Ka [3] read?
Answer: 1.88e+06 M⁻¹

Question: For “SpAQ9,10K/S33C (from UniProt P02976 37-327)”, which Ka [3] is on record?
Answer: 458000 M⁻¹

Question: How did the Ka [3] turn out when “SpAQ9,10K/S33D (from UniProt P02976 37-327)” was run?
Answer: 382000 M⁻¹

Question: “SpAQ9,10K/S33E (from UniProt A0A0H3K686 37-327)” was tested. Which Ka [3] did it give?
Answer: 49600 M⁻¹

Question: What about the Ka [4] of the same substance?
Answer: 41.2 M⁻¹

Question: What about the Ka [5] of the same substance?
Answer: 32.7 M⁻¹

Question: Which Ka [3] does the source give for “SpAQ9,10K/S33E/D36,37A (from UniProt P02976 37-327)” here?
Answer: 56800 M⁻¹

Question: How did the Ka [3] turn out when “SpAQ9,10K/S33E/D36,37A/G29A (from UniProt P02976 37-327)” was run?
Answer: 189000 M⁻¹

Question: For “SpAQ9,10K/S33E/D36,37A/G29F (from UniProt P02976 37-327)”, which Ka [3] is on record?
Answer: 1.48e+06 M⁻¹

Question: “SpAQ9,10K/S33E/D36,37A/G29R (from UniProt P02976 37-327)” was tested. Which Ka [3] did it give?
Answer: 1.02e+06 M⁻¹

Question: How did the Ka [3] turn out when “SpAQ9,10K/S33E/G29A (from UniProt P02976 37-327)” was run?
Answer: 126000 M⁻¹

Question: “SpAQ9,10K/S33E/G29F (from UniProt P02976 37-327)” was tested. Which Ka [3] did it give?
Answer: 158000 M⁻¹

Question: Which Ka [3] does the source give for “SpAQ9,10K/S33E/G29R (from UniProt P02976 37-327)” here?
Answer: 484000 M⁻¹

Question: Which Ka [3] does the source give for “SpAQ9,10K/S33F/D36,37A (from UniProt A0A0H3K686 37-327)” here?
Answer: 363000 M⁻¹

Question: With SpAQ9,10K/S33F/D36,37A/G29R as the substance, how does the Ka [3] read?
Answer: 906000 M⁻¹

Question: “SpAQ9,10K/S33F/G29A (from UniProt A0A0H3K686 37-327)” was tested. Which Ka [3] did it give?
Answer: 119000 M⁻¹

Question: With “SpAQ9,10K/S33F/G29F (from UniProt A0A0H3K686 37-327)” as the substance, how does the Ka [3] read?
Answer: 244000 M⁻¹

Question: How did the Ka [3] turn out when “SpAQ9,10K/S33F/G29R (from UniProt A0A0H3K686 37-327)” was run?
Answer: 190000 M⁻¹

Question: For “SpAQ9,10K/S33G (from UniProt P02976 37-327)”, which Ka [3] is on record?
Answer: 1.12e+06 M⁻¹

Question: With “SpAQ9,10K/S33H (from UniProt A0A0H3K686 37-327)” as the substance, how does the Ka [3] read?
Answer: 278000 M⁻¹

Question: For “SpAQ9,10K/S33I (from UniProt A0A0H3K686 37-327)”, which Ka [3] is on record?
Answer: 184000 M⁻¹

Question: Which Ka [3] does the source give for “SpAQ9,10K/S33K (from UniProt P02976 37-327)” here?
Answer: 512000 M⁻¹

Question: How did the Ka [3] turn out when “SpAQ9,10K/S33K/D36,37A (from UniProt A0A0H3K686 37-327)” was run?
Answer: 805000 M⁻¹

Question: Which Ka [3] does the source give for “SpAQ9,10K/S33L (from UniProt A0A0H3K686 37-327)” here?
Answer: 205000 M⁻¹

Question: “SpAQ9,10K/S33M (from UniProt A0A0H3K686 37-327)” was tested. Which Ka [3] did it give?
Answer: 318000 M⁻¹

Question: For “SpAQ9,10K/S33N (from UniProt A0A0H3K686 37-327)”, which Ka [3] is on record?
Answer: 307000 M⁻¹

Question: “SpAQ9,10K/S33P (from UniProt P02976 37-327)” was tested. Which Ka [3] did it give?
Answer: 422000 M⁻¹

Question: “SpAQ9,10K/S33Q/D36,37A (from UniProt P02976 37-327)” was tested. Which Ka [3] did it give?
Answer: 393000 M⁻¹

Question: SpAQ9,10K/S33Q/D36,37A/G29A was tested. Which Ka [3] did it give?
Answer: 489000 M⁻¹

Question: Which Ka [3] does the source give for SpAQ9,10K/S33Q/D36,37A/G29F here?
Answer: 1.25e+06 M⁻¹

Question: For SpAQ9,10K/S33Q/D36,37A/G29R, which Ka [3] is on record?
Answer: 638000 M⁻¹

Question: “SpAQ9,10K/S33Q/G29A (from UniProt A0A0H3K686 37-327)” was tested. Which Ka [3] did it give?
Answer: 256000 M⁻¹

Question: “SpAQ9,10K/S33Q/G29F (from UniProt A0A0H3K686 37-327)” was tested. Which Ka [3] did it give?
Answer: 128000 M⁻¹

Question: How did the Ka [3] turn out when “SpAQ9,10K/S33Q/G29R (from UniProt A0A0H3K686 37-327)” was run?
Answer: 233000 M⁻¹

Question: With “SpAQ9,10K/S33R (from UniProt A0A0H3K686 37-327)” as the substance, how does the Ka [3] read?
Answer: 346000 M⁻¹

Question: What does the source list for “SpAQ9,10K/S33T (from UniProt A0A0H3K686 37-327)”?
Answer: Ka [3]: 38600 M⁻¹; Ka [4]: 43.5 M⁻¹; Ka [5]: 39.9 M⁻¹

Question: With “SpAQ9,10K/S33V (from UniProt A0A0H3K686 37-327)” as the substance, how does the Ka [3] read?
Answer: 247000 M⁻¹

Question: For “SpAQ9,10K/S33W (from UniProt A0A0H3K686 37-327)”, which Ka [3] is on record?
Answer: 236000 M⁻¹

Question: How did the Ka [3] turn out when “SpAQ9,10K/S33Y (from UniProt A0A0H3K686 37-327)” was run?
Answer: 157000 M⁻¹

Question: Which EC50 (read off the curve) [8] does the source give for hMAb 3F6 (antibody) here?
Answer: 0.3 nM

Question: What about the EC50 (read off the curve) [9] of the same substance?
Answer: 0.3 nM

Question: And the EC50 (read off the curve) [10]?
Answer: 0.4 nM

Question: And the Ka [11]?
Answer: 4.99e+10 M⁻¹

Question: And the Ka [12]?
Answer: 9.82e+10 M⁻¹

Question: What about the Ka [13] of the same substance?
Answer: 7.96e+10 M⁻¹

Question: With “recombinant monoclonal antibody rMAb 3F6” as the substance, how does the EC50 (read off the curve) [14] read?
Answer: 0.07 nM

Question: What about the EC50 (read off the curve) [15] of the same substance?
Answer: 0.07 nM

Question: And the Ka [16]?
Answer: 1.51e+10 M⁻¹

Question: What about the Ka [17] of the same substance?
Answer: 1.42e+10 M⁻¹

Question: And the Ka [18]?
Answer: 1.34e+10 M⁻¹

Question: What about the EC50 (read off the curve) [19] of the same substance?
Answer: 0.07 nM

Question: For “wild-type SpA (five immunoglobulin-binding domains of staphylococcal protein A) (from UniProt P02976 37-327)”, which Ka [5] is on record?
Answer: 5.17e+07 M⁻¹
